Measurements taken from the supplement of paper PMC9112550, “Optimization of the antimicrobial peptide Bac7 by deep mutational scanning” (BMC Biology, 2022).

Test system: Escherichia coli TOP10
Assay: shrunken log2 fold change of peptide-encoding DNA abundance (4.5 h post-induction vs induction); higher = less antimicrobial activity (less host growth inhibition)
Conditions: time post-induction: 4.5 h; library: site-saturation at positions 5, 18, 19, 20
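Further: peptides expressed intracellularly from a pBAD plasmid library in pooled LB shake-flask culture, induced with 0.3% L-arabinose, DNA abundance read by NGS, three biological replicates, DESeq2 with apeglm shrinkage.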

Row | Sequence | shrunken log2 fold change
1 | RRIRPRPPRLPRPRPRPGDCPRP | 0.482
2 | RRIRGRPPRLPRPRPRPKGVPRP | 0.123
3 | RRIRFRPPRLPRPRPRPIYNPRP | -0.624
4 | RRIRQRPPRLPRPRPRPEDGPRP | 0.154
5 | RRIRFRPPRLPRPRPRPMGNPRP | -0.707
6 | RRIRPRPPRLPRPRPRPSCVPRP | -0.368
7 | RRIRIRPPRLPRPRPRPDDTPRP | -0.131
8 | RRIRQRPPRLPRPRPRPPGIPRP | -0.0579
9 | RRIRKRPPRLPRPRPRPHCQPRP | 0.101
10 | RRIRARPPRLPRPRPRPRSSPRP | 0.188
11 | RRIRMRPPRLPRPRPRPSMMPRP | 0.0163
12 | RRIRCRPPRLPRPRPRPFYPPRP | -0.511
13 | RRIRYRPPRLPRPRPRPTWQPRP | -0.255
14 | RRIRPRPPRLPRPRPRPSWGPRP | -0.0123
15 | RRIRDRPPRLPRPRPRPKRQPRP | -0.0603
16 | RRIRLRPPRLPRPRPRPEHLPRP | -0.118
17 | RRIRFRPPRLPRPRPRPPPGPRP | 1.34
18 | RRIRMRPPRLPRPRPRPGDFPRP | 0.215
19 | RRIRHRPPRLPRPRPRPALAPRP | 0.24
20 | RRIRRRPPRLPRPRPRPHHCPRP | -0.0737

Row | Sequence | shrunken log2 fold change
21 | RRIRCRPPRLPRPRPRPCEAPRP | -0.369
22 | RRIRFRPPRLPRPRPRPTLLPRP | -0.0998
23 | RRIRCRPPRLPRPRPRPEFMPRP | 0.118
24 | RRIRIRPPRLPRPRPRPGQGPRP | -0.257
25 | RRIRCRPPRLPRPRPRPELTPRP | 0.0136
26 | RRIRDRPPRLPRPRPRPKITPRP | -0.375
27 | RRIRGRPPRLPRPRPRPHLFPRP | 0.0842
28 | RRIRTRPPRLPRPRPRPEEIPRP | 0.0464
29 | RRIRSRPPRLPRPRPRPKTEPRP | -0.0689
30 | RRIRNRPPRLPRPRPRPFTTPRP | -0.0245
31 | RRIRRRPPRLPRPRPRPENWPRP | 0.153
32 | RRIRHRPPRLPRPRPRPNQNPRP | -0.285
33 | RRIRKRPPRLPRPRPRPHKCPRP | 2.12
34 | RRIRFRPPRLPRPRPRPVYRPRP | -0.285
35 | RRIRGRPPRLPRPRPRPSEGPRP | 0.356
36 | RRIRVRPPRLPRPRPRPRFAPRP | 0.527
37 | RRIRKRPPRLPRPRPRPPAVPRP | 0.847
38 | RRIRMRPPRLPRPRPRPVIYPRP | -0.0966
39 | RRIRFRPPRLPRPRPRPGGVPRP | 0.106
40 | RRIRGRPPRLPRPRPRPCEYPRP | 0.0669

Row | Sequence | shrunken log2 fold change
41 | RRIRQRPPRLPRPRPRPRPAPRP | 0.185
42 | RRIRRRPPRLPRPRPRPSRKPRP | 0.129
43 | RRIRPRPPRLPRPRPRPQFWPRP | 0.249
44 | RRIRIRPPRLPRPRPRPDGPPRP | -0.0369
45 | RRIRCRPPRLPRPRPRPATDPRP | -0.112
46 | RRIRYRPPRLPRPRPRPNGNPRP | -0.561
47 | RRIRPRPPRLPRPRPRPGLSPRP | 0.206
48 | RRIRTRPPRLPRPRPRPFMEPRP | -0.228
49 | RRIRFRPPRLPRPRPRPSWSPRP | -0.557
50 | RRIRSRPPRLPRPRPRPMLRPRP | 0.123
51 | RRIRDRPPRLPRPRPRPECAPRP | 1.58
52 | RRIRGRPPRLPRPRPRPVITPRP | -0.09
53 | RRIRQRPPRLPRPRPRPNNWPRP | -0.0942
54 | RRIRWRPPRLPRPRPRPATSPRP | 0.385
55 | RRIRNRPPRLPRPRPRPGVPPRP | 0.457
56 | RRIRGRPPRLPRPRPRPGKIPRP | 1.93
57 | RRIRRRPPRLPRPRPRPVVVPRP | 0.186
58 | RRIRMRPPRLPRPRPRPWVFPRP | 0.152
59 | RRIRDRPPRLPRPRPRPPMCPRP | -0.0883
60 | RRIRTRPPRLPRPRPRPFGAPRP | 0.334
